According to publication PMC5690536:

Molecular target: GST-CD11a αI-domain
Experiment: radioligand binding

- Kd: 656 nM
Substance: 32P-labeled pkISG15 (from UniProt P05161 1-157) (natural protein)
